This data set addresses T1, La(4-325) (Homo sapiens, UniProt P05455 4-325).
T1 sequence: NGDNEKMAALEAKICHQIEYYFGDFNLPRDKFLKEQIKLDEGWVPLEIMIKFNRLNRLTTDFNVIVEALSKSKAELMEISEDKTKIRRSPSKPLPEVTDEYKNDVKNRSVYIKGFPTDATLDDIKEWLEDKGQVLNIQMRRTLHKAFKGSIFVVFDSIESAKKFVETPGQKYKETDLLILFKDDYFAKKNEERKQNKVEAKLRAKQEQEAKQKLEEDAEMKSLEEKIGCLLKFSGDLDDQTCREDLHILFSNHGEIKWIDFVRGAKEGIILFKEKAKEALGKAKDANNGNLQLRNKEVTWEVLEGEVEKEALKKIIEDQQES
The experiment in a line: ITC. A general note: Isothermal titration calorimetry measures the heat released or taken up as one component is titrated into another.

For the molecule ACCUAACCACCACUACCACCUCCCACA (ssRNA) [27-mer ssRNA], the binding result is given as “no binding”.

Source of the values: article PMC3273827.
